Experimental data taken from patent US20040176568A1 (GENERAL HOSPITAL, published 2004).
Like-named read-outs stand apart in the source and are kept apart here. Blank lines part the entries; values can stand above or below the molecule they belong to. No end group written: not given here.

Legend:
[1] = target: T1, human PTH-1 receptor (human, UniProt Q03431 27-593); experiment: cell-based or functional assay
T1 sequence (looked up): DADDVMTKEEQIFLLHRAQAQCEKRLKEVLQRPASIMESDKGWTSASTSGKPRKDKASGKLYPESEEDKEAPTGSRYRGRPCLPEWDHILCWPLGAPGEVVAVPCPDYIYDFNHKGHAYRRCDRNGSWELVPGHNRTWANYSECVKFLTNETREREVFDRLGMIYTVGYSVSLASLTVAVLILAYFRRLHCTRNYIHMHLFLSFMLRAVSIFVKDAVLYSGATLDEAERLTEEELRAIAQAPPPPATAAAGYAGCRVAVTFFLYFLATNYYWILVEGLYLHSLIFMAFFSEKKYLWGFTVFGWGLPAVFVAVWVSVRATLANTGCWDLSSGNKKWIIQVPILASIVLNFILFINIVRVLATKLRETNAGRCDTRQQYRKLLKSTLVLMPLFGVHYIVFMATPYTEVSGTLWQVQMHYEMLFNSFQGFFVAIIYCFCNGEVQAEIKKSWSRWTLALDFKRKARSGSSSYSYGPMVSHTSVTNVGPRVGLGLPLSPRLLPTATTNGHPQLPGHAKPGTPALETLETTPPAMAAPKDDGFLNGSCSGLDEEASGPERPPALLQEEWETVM

[2] = target: T1, human PTH-1 receptor; experiment: radioligand binding, HKRK B7 cells (human PTH-1 receptor)
[3] = target: T1, human PTH-1 receptor; experiment: cell-based or functional assay; remark: listed apart in the source
[4] = target: T1, human PTH-1 receptor; experiment: cell-based or functional assay; remark: listed apart in the source
[5] = target: T1, human PTH-1 receptor; experiment: radioligand competition, HKRK B7 cells (human PTH-1 receptor)
Source text: (§1) Cell layers were washed three times before solubilization for determination of cell-associated radioactivity.

[6] = target: T2, rat PTH-1 receptor (rat, UniProt P25961 27-591); experiment: radioligand competition, EW5 cells (rat PTH-1 receptor)
T2 construct: whole, on cells; recombinant receptor on cells; also called rat PTH/PTHrP receptor
T2 sequence (looked up): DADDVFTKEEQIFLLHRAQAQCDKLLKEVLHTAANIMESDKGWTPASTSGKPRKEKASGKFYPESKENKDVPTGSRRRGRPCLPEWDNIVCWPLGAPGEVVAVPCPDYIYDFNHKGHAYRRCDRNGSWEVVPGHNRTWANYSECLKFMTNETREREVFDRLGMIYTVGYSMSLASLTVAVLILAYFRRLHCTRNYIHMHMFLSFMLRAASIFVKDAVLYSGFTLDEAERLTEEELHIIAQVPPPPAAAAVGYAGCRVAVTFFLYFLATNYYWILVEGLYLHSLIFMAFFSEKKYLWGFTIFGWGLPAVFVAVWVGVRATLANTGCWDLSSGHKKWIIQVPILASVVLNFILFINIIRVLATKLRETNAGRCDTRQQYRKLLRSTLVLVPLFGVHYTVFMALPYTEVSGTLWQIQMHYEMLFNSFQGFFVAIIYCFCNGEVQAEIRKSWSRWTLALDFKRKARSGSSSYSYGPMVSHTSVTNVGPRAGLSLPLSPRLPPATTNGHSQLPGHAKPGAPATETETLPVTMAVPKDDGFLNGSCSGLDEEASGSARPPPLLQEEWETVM
Source text: as §1

[7] = target: T2, rat PTH-1 receptor; experiment: cell-based or functional assay
[8] = target: T2, rat PTH-1 receptor; experiment: radioligand competition, EW5 cells (rat) against HKRK B7 cells (human)
Source text: as §1

PLC activation, percent of basal at 1000 nM peptide, HKRK B7 cells (percent of basal) [1]: 101
Molecule: desamino-hPTHrP(1-36) (from UniProt P12272 37-72) (peptide)

cell-associated radioactivity, basal (no competitor) [2]: 25500 cpm/well
Molecule: ^125I-[Nle^8,21, Tyr^34]rat PTH-(1-34) (from UniProt P04089 32-65) (peptide)

PLC Activity (% Basal), 1000 nM peptide, transfected HEK-293 cells [1]: 108 % Basal
Molecule: desamino[Gly^1]hPTH-(1-34) (from UniProt P01270 32-65) (peptide)

PLC activation, percent of basal at 1000 nM peptide, HKRK B7 cells (percent of basal) [1]: 178
Molecule: hPTHrP(1-36) (from UniProt P12272 37-72) (peptide)

PLC Activity (% Basal), 1000 nM peptide, transfected HEK-293 cells [1]: 106 % Basal
Molecule: desamino[Ala^1]hPTH-(1-34) (from UniProt P01270 32-65) (peptide)

PLC activity, percent of basal at 1000 nM peptide (percent of basal) [1]: 105
Molecule: [Tyr^0]hPTH-(1-34) (from UniProt P01270 32-65) (peptide)

fold improvement of EC50 for AC activation over hPTH-(1-27) [3]: 10 fold
Molecule: AVSEIQLMHNLGKHLNSMRRVEWLRKK-NH2 [[Ala^1,Arg^19]hPTH-(1-27)]

fold loss of AC potency against hPTH-(1-27) [3]: 10 fold
Molecule: SVSEIQLMHNLGKHLNSMERVEWLRK-NH2 [hPTH-(1-26)]

PLC Activity (% Basal), 1000 nM peptide, transfected HEK-293 cells [4]: 95 % Basal
EC50 of AC activation, HKRK B7 cells [3]: 100 nM
fold loss of AC activity on removal of Leu^28 [3]: ~100 fold
Molecule: SVSEIQLMHNLGKHLNSMERVEWLRKK-NH2 [hPTH-(1-27)]

PLC Activity (% Basal), 1000 nM peptide, transfected HEK-293 cells [4]: 88 % Basal
Molecule: VSEIQLMHNLGKHLNSMERVEWLRKKLQDVHNY-NH2 [hPTH-(2-34)]

EC50 of PLC activation (IP3 formation), HKRK B7 cells [3]: 1000 nM
Molecule: SVSEIQLMHNLGKHLNSMERVEWLRKKLQ-NH2 (peptide, UniProt P01270 32-60, looked up) [hPTH-(1-29)]

PLC Activity (% Basal), 1000 nM peptide, transfected HEK-293 cells [4]: 305 % Basal
IC50 [5]: 1000 nM
EC50 of AC activation, HKRK B7 cells [3]: 1 nM
EC50 of PLC activation, HKRK B7 cells [3]: 6000 nM
fold loss of PLC potency against hPTH-(1-29) [3]: ~5 fold
binding result [6]: binds
Molecule: SVSEIQLMHNLGKHLNSMERVEWLRKKL-NH2 [hPTH-(1-28)]

IC50 [5]: 100 nM
EC50 of PLC activation, HKRK B7 cells [3]: 300 nM
Molecule: SVSEIQLMHNLGKHLNSMRRVEWLRKKL-NH2 (Analog of hPTH-(1-28)) [[Arg^19]hPTH-(1-28)]

EC50 for PLC activation, HKRK B7 cells [3]: 200 nM
fold improvement of EC50 for PLC activation over [Ala^1]hPTH-(1-28) [3]: 5 fold
Molecule: AVSEIQLMHNLGKHLNSMRRVEWLRKKL-NH2 [[Ala^1,Arg^19]hPTH-(1-28)]

EC50 for PLC activation, HKRK B7 cells [3]: 1000 nM
Molecule: AVSEIQLMHNLGKHLNSMERVEWLRKKL-NH2 [[Ala^1]hPTH-(1-28)]

PLC Activity (% Basal), 1000 nM peptide, transfected HEK-293 cells [4]: 854 % Basal
Molecule: SVSEIQLMHNLGKHLNSMERVEWLRKKLQDVHNY-NH2 [hPTH-(1-34)]

fold impairment of binding by the Gly^1 substitution (against hPTH-(1-28)) [5]: ~3 fold
fold enhancement of binding affinity by the Gly^1 substitution (against hPTH-(1-28)) [6]: 2 fold
Molecule: GVSEIQLMHNLGKHLNSMERVEWLRKKL-NH2 (Analog of hPTH-(1-28)) [[Gly^1]hPTH-(1-28)]

fold impairment of binding by the Gly^1 substitution (against [Arg^19]hPTH-(1-28)) [5]: ~3 fold
fold improvement in binding affinity over [Gly^1]hPTH-(1-28) [5]: 5 fold
fold lower binding affinity than hPTH(1-34) [5]: 30 fold
fold reduction of binding relative to hPTH-(1-34) [5]: ~40 fold
fold impairment of EC50 for AC relative to hPTH-(1-34), EW5 cells [7]: ~6 fold
selectivity for AC vs. PLC [7]: > 10 fold
fold reduction of PLC potency, HKRK B7 cells [3]: ~100 fold
selectivity for activation of AC (vs. PLC), relative to hPTH-(1-34) [3]: > 40 fold
fold greater binding affinity than for the human PTH-1 receptor [8]: 10 fold
fold enhancement of binding affinity by the Gly^1 substitution (against [Arg^19]hPTH-(1-28)) [6]: 2 fold
fold impairment of binding affinity relative to hPTH-(1-34) [6]: ~6 fold
fold lower binding affinity than hPTH-(1-34) [6]: 7 fold
Molecule: GVSEIQLMHNLGKHLNSMRRVEWLRKKL-NH2 (Analog of hPTH-(1-28)) [[Gly^1,Arg^19]hPTH-(1-28)]
